Test results as given in patent US20210246166A1 (Bayer, published 2021).
Numbered stars: 1 amine (or outer) side, 2 acyl side, 3 side chain; on linkers, the order of the positions; unused ones are H or OH. Bridge positions count the residues as written; N and C are the ends. Square brackets hold non-standard residues; d marks the D form. Ends that are not written are not given here. NH(CH2CH2O)4CH2CO = O=C(COCCOCCOCCOCCN[*:1])[*:2]; Oic = O=C(O)[C@@H]1C[C@@H]2CCCC[C@@H]2N1; PEG8 = NCCOCCOCCOCCOCCOCCOCCOCCOCCC(=O)O; tBuAla = CC(C)(C)C[C@H](N)C(=O)O; Cit = NC(=O)NCCC[C@H](N)C(=O)O; Pen = CC(C)(S)[C@H](N)C(=O)O; NMeC = CN[C@@H](CS)C(=O)O; PEG3 = NCCOCCOCCOCCC(=O)O; Orn = NCCC[C@H](N)C(=O)O; Aze = O=C(O)[C@@H]1CCN1; Nva = CCC[C@H](N)C(=O)O; Abu = CC[C@H](N)C(=O)O; PEG2 = NCCOCCOCCC(=O)O; Sar = CNCC(=O)O

T1: recombinant human MASP1 active protease (amino acids 297-699, C-terminal His Tag) (human, UniProt P48740 297-699)
T1 sequence: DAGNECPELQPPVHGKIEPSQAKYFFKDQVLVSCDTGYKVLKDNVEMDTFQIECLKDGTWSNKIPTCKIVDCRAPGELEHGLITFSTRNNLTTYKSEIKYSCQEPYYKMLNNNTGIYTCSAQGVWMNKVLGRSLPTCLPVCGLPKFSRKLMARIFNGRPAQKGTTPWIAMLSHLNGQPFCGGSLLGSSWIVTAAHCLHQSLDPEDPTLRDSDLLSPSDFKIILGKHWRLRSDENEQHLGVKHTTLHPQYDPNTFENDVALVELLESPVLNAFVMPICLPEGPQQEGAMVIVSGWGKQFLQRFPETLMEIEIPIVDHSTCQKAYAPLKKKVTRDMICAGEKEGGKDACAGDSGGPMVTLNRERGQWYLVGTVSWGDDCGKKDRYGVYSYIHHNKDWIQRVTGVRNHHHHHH

B1: WIC+SRS-((tBu)A)-PPI-(Pen)+IPD-NH2 (peptide)
peptide: WICSRS[tBuAla]PPI[Pen]IPD-NH2
modifications: disulfide 3-11; N-terminus assumed
SMILES: CC[C@H](C)[C@H](NC(=O)[C@@H](N)Cc1c[nH]c2ccccc12)C(=O)N[C@H]1CSSC(C)(C)[C@@H](C(=O)N[C@H](C(=O)N2CCC[C@H]2C(=O)N[C@@H](CC(=O)O)C(N)=O)[C@@H](C)CC)NC(=O)[C@H]([C@@H](C)CC)NC(=O)[C@@H]2CCCN2C(=O)[C@@H]2CCCN2C(=O)[C@H](CC(C)(C)C)NC(=O)[C@H](CO)NC(=O)[C@H](CCCNC(=N)N)NC(=O)[C@H](CO)NC1=O
B2: (Nva)-IC+SRS-((tBu)A)-PPI-(Pen)+IPD-NH2 (peptide)
peptide: [Nva]ICSRS[tBuAla]PPI[Pen]IPD-NH2
modifications: disulfide 3-11; N-terminus assumed
SMILES: CCC[C@H](N)C(=O)N[C@H](C(=O)N[C@H]1CSSC(C)(C)[C@@H](C(=O)N[C@H](C(=O)N2CCC[C@H]2C(=O)N[C@@H](CC(=O)O)C(N)=O)[C@@H](C)CC)NC(=O)[C@H]([C@@H](C)CC)NC(=O)[C@@H]2CCCN2C(=O)[C@@H]2CCCN2C(=O)[C@H](CC(C)(C)C)NC(=O)[C@H](CO)NC(=O)[C@H](CCCNC(=N)N)NC(=O)[C@H](CO)NC1=O)[C@@H](C)CC
B3: (Abu)-IC+SRS-((tBu)A)-PPIC+IPD-NH2 (peptide)
peptide: [Abu]ICSRS[tBuAla]PPICIPD-NH2
modifications: disulfide 3-11; N-terminus assumed
SMILES: CC[C@H](N)C(=O)N[C@H](C(=O)N[C@H]1CSSC[C@@H](C(=O)N[C@H](C(=O)N2CCC[C@H]2C(=O)N[C@@H](CC(=O)O)C(N)=O)[C@@H](C)CC)NC(=O)[C@H]([C@@H](C)CC)NC(=O)[C@@H]2CCCN2C(=O)[C@@H]2CCCN2C(=O)[C@H](CC(C)(C)C)NC(=O)[C@H](CO)NC(=O)[C@H](CCCNC(=N)N)NC(=O)[C@H](CO)NC1=O)[C@@H](C)CC
B4: ((N-Me)G)-IC+SRS-((tBu)A)-PPI-(Pen)+IP-(PEG4-CH2CO2H (15 atoms))-NH2 (peptide)
peptide: [Sar]ICSRS[tBuAla]PPI[Pen]IP[NH(CH2CH2O)4CH2CO]-NH2
modifications: disulfide 3-11; N-terminus assumed
SMILES: CC[C@H](C)[C@H](NC(=O)CNC)C(=O)N[C@H]1CSSC(C)(C)[C@@H](C(=O)N[C@H](C(=O)N2CCC[C@H]2C(=O)NCCOCCOCCOCCOCC(N)=O)[C@@H](C)CC)NC(=O)[C@H]([C@@H](C)CC)NC(=O)[C@@H]2CCCN2C(=O)[C@@H]2CCCN2C(=O)[C@H](CC(C)(C)C)NC(=O)[C@H](CO)NC(=O)[C@H](CCCNC(=N)N)NC(=O)[C@H](CO)NC1=O
B5: AIC+SRSLP-(Oic)-I-(Pen)+IP-NH2 (peptide)
peptide: AICSRSLP[Oic]I[Pen]IP-NH2
modifications: disulfide 3-11; N-terminus assumed
SMILES: CC[C@H](C)[C@H](NC(=O)[C@H](C)N)C(=O)N[C@H]1CSSC(C)(C)[C@@H](C(=O)N[C@H](C(=O)N2CCC[C@H]2C(N)=O)[C@@H](C)CC)NC(=O)[C@H]([C@@H](C)CC)NC(=O)[C@@H]2C[C@@H]3CCCC[C@@H]3N2C(=O)[C@@H]2CCCN2C(=O)[C@H](CC(C)C)NC(=O)[C@H](CO)NC(=O)[C@H](CCCNC(=N)N)NC(=O)[C@H](CO)NC1=O
B6: KIC+SRS-((tBu)A)-PPI-((N-Me)C)+I-NH2 (peptide)
peptide: KICSRS[tBuAla]PPI[NMeC]I-NH2
modifications: disulfide 3-11; N-terminus assumed
SMILES: CC[C@H](C)[C@H](NC(=O)[C@@H]1CSSC[C@H](NC(=O)[C@@H](NC(=O)[C@@H](N)CCCCN)[C@@H](C)CC)C(=O)N[C@@H](CO)C(=O)N[C@@H](CCCNC(=N)N)C(=O)N[C@@H](CO)C(=O)N[C@@H](CC(C)(C)C)C(=O)N2CCC[C@H]2C(=O)N2CCC[C@H]2C(=O)N[C@@H]([C@@H](C)CC)C(=O)N1C)C(N)=O
B7: ((N-Me)G)-IC+SRS-((tBu)A)-PPI-(Pen)+IP-(PEG2(13 atoms))-NH2 (peptide)
peptide: [Sar]ICSRS[tBuAla]PPI[Pen]IP[PEG3]-NH2
modifications: disulfide 3-11; N-terminus assumed
SMILES: CC[C@H](C)[C@H](NC(=O)CNC)C(=O)N[C@H]1CSSC(C)(C)[C@@H](C(=O)N[C@H](C(=O)N2CCC[C@H]2C(=O)NCCOCCOCCOCCC(N)=O)[C@@H](C)CC)NC(=O)[C@H]([C@@H](C)CC)NC(=O)[C@@H]2CCCN2C(=O)[C@@H]2CCCN2C(=O)[C@H](CC(C)(C)C)NC(=O)[C@H](CO)NC(=O)[C@H](CCCNC(=N)N)NC(=O)[C@H](CO)NC1=O
B8: LIC+SRS-((tBu)A)-PPI-(Pen)+IPD-NH2 (peptide)
peptide: LICSRS[tBuAla]PPI[Pen]IPD-NH2
modifications: disulfide 3-11; N-terminus assumed
SMILES: CC[C@H](C)[C@H](NC(=O)[C@@H](N)CC(C)C)C(=O)N[C@H]1CSSC(C)(C)[C@@H](C(=O)N[C@H](C(=O)N2CCC[C@H]2C(=O)N[C@@H](CC(=O)O)C(N)=O)[C@@H](C)CC)NC(=O)[C@H]([C@@H](C)CC)NC(=O)[C@@H]2CCCN2C(=O)[C@@H]2CCCN2C(=O)[C@H](CC(C)(C)C)NC(=O)[C@H](CO)NC(=O)[C@H](CCCNC(=N)N)NC(=O)[C@H](CO)NC1=O
B9: (Cit)-IC+SRS-((tBu)A)-PPI-(Pen)+IPD-OH (peptide)
peptide: [Cit]ICSRS[tBuAla]PPI[Pen]IPD-OH
modifications: disulfide 3-11; N-terminus assumed
SMILES: CC[C@H](C)[C@H](NC(=O)[C@@H](N)CCCNC(N)=O)C(=O)N[C@H]1CSSC(C)(C)[C@@H](C(=O)N[C@H](C(=O)N2CCC[C@H]2C(=O)N[C@@H](CC(=O)O)C(=O)O)[C@@H](C)CC)NC(=O)[C@H]([C@@H](C)CC)NC(=O)[C@@H]2CCCN2C(=O)[C@@H]2CCCN2C(=O)[C@H](CC(C)(C)C)NC(=O)[C@H](CO)NC(=O)[C@H](CCCNC(=N)N)NC(=O)[C@H](CO)NC1=O
B10: (Orn)-IC+SRS-((tBu)A)-PPI-((N-Me)C)+IPD-NH2 (peptide)
peptide: [Orn]ICSRS[tBuAla]PPI[NMeC]IPD-NH2
modifications: disulfide 3-11; N-terminus assumed
SMILES: CC[C@H](C)[C@H](NC(=O)[C@@H](N)CCCN)C(=O)N[C@H]1CSSC[C@@H](C(=O)N[C@H](C(=O)N2CCC[C@H]2C(=O)N[C@@H](CC(=O)O)C(N)=O)[C@@H](C)CC)N(C)C(=O)[C@H]([C@@H](C)CC)NC(=O)[C@@H]2CCCN2C(=O)[C@@H]2CCCN2C(=O)[C@H](CC(C)(C)C)NC(=O)[C@H](CO)NC(=O)[C@H](CCCNC(=N)N)NC(=O)[C@H](CO)NC1=O
B11: ((N-Me)G)-IC+SRSLP-(Oic)-I-(Pen)+IP-(PEG1(10 atoms))-NH2 (peptide)
peptide: [Sar]ICSRSLP[Oic]I[Pen]IP[PEG2]-NH2
modifications: disulfide 3-11; N-terminus assumed
SMILES: CC[C@H](C)[C@H](NC(=O)CNC)C(=O)N[C@H]1CSSC(C)(C)[C@@H](C(=O)N[C@H](C(=O)N2CCC[C@H]2C(=O)NCCOCCOCCC(N)=O)[C@@H](C)CC)NC(=O)[C@H]([C@@H](C)CC)NC(=O)[C@@H]2C[C@@H]3CCCC[C@@H]3N2C(=O)[C@@H]2CCCN2C(=O)[C@H](CC(C)C)NC(=O)[C@H](CO)NC(=O)[C@H](CCCNC(=N)N)NC(=O)[C@H](CO)NC1=O

Columns and labels:
[1] = biological target: T1, recombinant human MASP1 active protease …; test: cell-based or functional assay
[2] = biological target: recombinant human MASP2 active protease (amino acids 297-686, C-terminal His Tag) (human, UniProt O00187 297-686); test: cell-based or functional assay
recombinant human MASP2 active protease (amino acids 297-686, C-terminal His Tag), sequence (O00187 other isoform, or with tags, fused parts or gaps limits assumed): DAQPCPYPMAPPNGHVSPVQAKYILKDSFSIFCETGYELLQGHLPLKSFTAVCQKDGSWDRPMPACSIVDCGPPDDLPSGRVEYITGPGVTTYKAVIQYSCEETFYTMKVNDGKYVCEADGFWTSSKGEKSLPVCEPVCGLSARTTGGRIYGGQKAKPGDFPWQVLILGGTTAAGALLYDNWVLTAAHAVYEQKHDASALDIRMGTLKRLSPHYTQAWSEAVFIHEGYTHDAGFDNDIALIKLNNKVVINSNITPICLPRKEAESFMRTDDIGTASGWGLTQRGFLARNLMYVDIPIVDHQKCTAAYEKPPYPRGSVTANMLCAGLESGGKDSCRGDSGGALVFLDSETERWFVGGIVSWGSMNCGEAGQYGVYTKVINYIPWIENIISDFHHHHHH

Binder	human MASP1 IC50 [1] [nM]	human MASP2 IC50 [2] [nM]
B1	2.4	64
[Orn]ICSRS[tBuAla]PPI[NMeC]IPD-NH2 (disulfide 3-11; also: HCl salt) [(Orn)-IC+SRS-((tBu)A)-PPI-((N-Me)C)+IPD-NH2 (HCl salt)]	2.4	170
[Sar]ICSRSLP[Oic]I[Pen]IP[PEG5‑CH2CO2H (18 atoms)]-NH2 (disulfide 3-11) [((N-Me)G)-IC+SRSLP-(Oic)-I-(Pen)+IP-(PEG5-CH2CO2H (18 atoms))-NH2]	2.4	110
[Sar]ICSRS[tBuAla]PPI[Pen]IP-{PEG8-NH2} (disulfide 3-11) [((N-Me)G)-IC+SRS-((tBu)A)-PPI-(Pen)+IP-(PEG8(28 atoms))-NH2]	2.2	52
B2	2.2	51
B3	2.2	120
B4	2.2	30
B5	2.2	63
[Sar]ICSRSLP[Oic]I[Pen]IP-NH2 (disulfide 3-11; also: HCl salt) [((N-Me)G)-IC+SRSLP-(Oic)-I-(Pen)+IP-NH2 (HCl salt)]	2.2	43
B6	2.4	110
B7	2.2	42
B8	2.2	70
B9	2.2	65
B10	2.4	150
B11	2.3	87
[Aze]ICSRS[tBuAla]PPI[Pen]IPD-NH2 (disulfide 3-11) [(Azetidine-2-carboxylic acid)-IC+SRS-((tBu)A)-PPI-(Pen)+IPD-NH2]	2.4	68
